Series [1] concerns the target T1, Formate oxidase (FOx) (Aspergillus oryzae, UniProt Q2UD26).
T1 construct: gene AO090012000349; synthetic gene in pET28a(+) (NdeI-HindIII), expressed in E. coli BL21(DE3), purified on Ni-Sepharose; His tag cleavage not mentioned; contains FAD / 8-formyl FAD
T1 sequence (Q2UD26 2-578): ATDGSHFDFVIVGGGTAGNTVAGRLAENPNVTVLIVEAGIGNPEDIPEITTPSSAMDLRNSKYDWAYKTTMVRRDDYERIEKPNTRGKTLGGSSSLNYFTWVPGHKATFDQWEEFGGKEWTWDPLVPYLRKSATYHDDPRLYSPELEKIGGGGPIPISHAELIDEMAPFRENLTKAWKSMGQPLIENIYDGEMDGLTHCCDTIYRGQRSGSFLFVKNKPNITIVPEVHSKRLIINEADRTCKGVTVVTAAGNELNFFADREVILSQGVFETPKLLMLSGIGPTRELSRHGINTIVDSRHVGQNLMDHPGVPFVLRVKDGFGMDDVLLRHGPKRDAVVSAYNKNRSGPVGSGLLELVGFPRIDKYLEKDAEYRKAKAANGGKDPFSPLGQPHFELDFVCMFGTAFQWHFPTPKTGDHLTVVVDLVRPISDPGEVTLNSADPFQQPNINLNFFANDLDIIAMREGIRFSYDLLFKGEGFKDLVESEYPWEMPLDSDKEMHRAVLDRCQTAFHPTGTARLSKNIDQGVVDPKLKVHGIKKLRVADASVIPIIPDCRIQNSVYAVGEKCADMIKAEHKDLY
The series can be described thus: UV-visible absorption spectra of purified enzyme. The class given is binding. The following applies: 4 °C.

Substrate in series [2]: O=CO
Description: purified protein. Conditions: 50 mM sodium acetate pH 5.0, 25 °C, air oxygen, enzyme 14 h after purification (8-formyl FAD formed).

One may read the Km as the concentration of substrate that gives half-maximal velocity. By kcat is commonly meant the number of substrate molecules converted per active site and unit of time at saturation. As usually defined, the kcat/Km is the second-order rate constant that governs catalysis at low substrate concentration.

Take `Cc1cc2nc3c(=O)[nH]c(=O)nc-3n(C[C@H](O)[C@H](O)[C@H](O)COP(=O)(O)OP(=O)(O)OC[C@H]3O[C@@H](n4cnc5c(N)ncnc54)[C@H](O)[C@@H]3O)c2cc1C=O` [8-formyl FAD]: the “UV-visible absorption spectra of purified enzyme” value in series [1] (formed in situ from bound FAD, 14 h) is listed as “conversion of FAD to 8-formyl FAD within the active site of FOx”. In the case of `Cc1cc2nc3c(=O)[nH]c(=O)nc-3n(C[C@H](O)[C@H](O)[C@H](O)COP(=O)(O)OP(=O)(O)OC[C@H]3O[C@@H](n4cnc5c(N)ncnc54)[C@H](O)[C@@H]3O)c2cc1C` [FAD], the “UV-visible absorption spectra of purified enzyme” value in series [1] (copurified cofactor, autocatalytically converted to 8-formyl FAD) is “conversion of FAD to 8-formyl FAD within the active site of FOx”.

B1: Formate oxidase (FOx) (Aspergillus oryzae RIB40) (protein)
chain: ATDGSHFDFVIVGGGTAGNTVAGRLAENPNVTVLIVEAGIGNPEDIPEITTPSSAMDLRNSKYDWAYKTTMVRRDDYERIEKPNTRGKTLGGSSSLNYFTWVPGHKATFDQWEEFGGKEWTWDPLVPYLRKSATYHDDPRLYSPELEKIGGGGPIPISHAELIDEMAPFRENLTKAWKSMGQPLIENIYDGEMDGLTHCCDTIYRGQRSGSFLFVKNKPNITIVPEVHSKRLIINEADRTCKGVTVVTAAGNELNFFADREVILSQGVFETPKLLMLSGIGPTRELSRHGINTIVDSRHVGQNLMDHPGVPFVLRVKDGFGMDDVLLRHGPKRDAVVSAYNKNRSGPVGSGLLELVGFPRIDKYLEKDAEYRKAKAANGGKDPFSPLGQPHFELDFVCMFGTAFQWHFPTPKTGDHLTVVVDLVRPISDPGEVTLNSADPFQQPNINLNFFANDLDIIAMREGIRFSYDLLFKGEGFKDLVESEYPWEMPLDSDKEMHRAVLDRCQTAFHPTGTARLSKNIDQGVVDPKLKVHGIKKLRVADASVIPIIPDCRIQNSVYAVGEKCADMIKAEHKDLY
Consider B1, for which, in series [2], the Km amounted to 96 ± 3.1 mM, the kcat worked out at 102 s⁻¹ and the kcat/Km came to 1100 M⁻¹ s⁻¹.
